Results taken from PMC7695701, “Mechanism and inhibition of Streptococcus pneumoniae IgA1 protease” (Nature Communications, 2020).

Target: T1, S. pneumoniae IgA1 protease catalytic region (IgA1P residues 665–1963), wild type (Streptococcus pneumoniae, UniProt Q59947)
T1 construct: Streptococcus pneumoniae IgA1 protease (M26 metalloprotease), catalytic region, residues 665-1963 of UniProt Q59947 / NCBI WP_000417171 (D39 and R6 strains); Thrombin cleavage site between MBP and IgA1P; also called IgA1P 665–1963; not shown: MBP, N-terminal, cleaved
T1 sequence (Q59947 665-1963): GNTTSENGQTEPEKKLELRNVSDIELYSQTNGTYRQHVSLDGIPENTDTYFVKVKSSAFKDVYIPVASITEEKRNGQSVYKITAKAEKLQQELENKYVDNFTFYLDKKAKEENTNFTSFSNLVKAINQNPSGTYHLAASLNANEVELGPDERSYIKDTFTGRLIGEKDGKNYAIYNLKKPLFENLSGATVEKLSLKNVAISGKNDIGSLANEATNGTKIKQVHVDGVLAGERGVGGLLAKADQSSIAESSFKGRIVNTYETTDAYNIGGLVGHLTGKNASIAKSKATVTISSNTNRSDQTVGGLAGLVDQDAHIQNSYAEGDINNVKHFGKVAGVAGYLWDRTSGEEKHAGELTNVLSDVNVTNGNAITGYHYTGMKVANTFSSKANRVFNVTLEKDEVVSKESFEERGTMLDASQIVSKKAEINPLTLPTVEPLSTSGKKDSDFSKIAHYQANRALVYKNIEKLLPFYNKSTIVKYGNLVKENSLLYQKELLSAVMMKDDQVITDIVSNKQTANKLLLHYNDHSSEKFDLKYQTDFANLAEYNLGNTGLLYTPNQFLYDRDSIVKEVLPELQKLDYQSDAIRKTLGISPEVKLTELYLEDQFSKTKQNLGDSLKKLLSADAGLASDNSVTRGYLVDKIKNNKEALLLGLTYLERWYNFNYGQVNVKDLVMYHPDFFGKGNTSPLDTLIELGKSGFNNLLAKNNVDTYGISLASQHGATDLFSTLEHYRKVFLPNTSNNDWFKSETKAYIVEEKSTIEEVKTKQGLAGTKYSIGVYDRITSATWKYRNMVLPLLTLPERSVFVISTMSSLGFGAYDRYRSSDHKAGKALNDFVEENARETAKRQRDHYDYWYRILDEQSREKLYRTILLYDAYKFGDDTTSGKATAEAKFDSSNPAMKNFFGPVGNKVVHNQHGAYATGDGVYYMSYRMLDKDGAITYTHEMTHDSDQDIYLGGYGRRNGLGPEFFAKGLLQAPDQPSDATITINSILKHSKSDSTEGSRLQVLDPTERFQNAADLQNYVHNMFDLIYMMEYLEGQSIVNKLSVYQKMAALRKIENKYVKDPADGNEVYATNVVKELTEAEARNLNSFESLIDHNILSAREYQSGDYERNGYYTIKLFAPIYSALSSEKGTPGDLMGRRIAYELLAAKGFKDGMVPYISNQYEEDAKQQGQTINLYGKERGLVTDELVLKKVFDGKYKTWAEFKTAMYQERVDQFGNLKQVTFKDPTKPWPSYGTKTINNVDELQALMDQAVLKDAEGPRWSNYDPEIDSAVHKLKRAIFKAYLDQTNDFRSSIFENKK
Assay: cryo-EM structure; wild type IgA1P (residues 665-1963) with the mAb #2 Fab fragment; same procedure as for the IgA1 complex but in the absence of EDTA; 20 mM HEPES, pH 7.4, 150 mM NaCl
Details: both partners purified

B1: mAb #2 Fab fragment (neutralizing murine monoclonal antibody against IgA1P) (Fab, V domains shown)
VH: EVQLQQSGPELEKPGASMKISCKASGYSFTGYNMNWVKQSNGKSLEWIGSIDPYTGGSNYNQKFMGKATLTVDKSSSTAYMQLKSLTSEDSAVYYCATVVGRVYAMDYWGQGTSVTVSS
VL: EEVLTQSPAIMSASPGEKVTMTCSASSSVSYIHWYQQKSNTSPKLWIYATSKLASGVPGRFSGSGSGNSYSLTISSMEAEDVATYYCFQGSGYPFTFGSGTKLEIK
notes: PDB 3RHW named as the most similar heavy chain; PDB 4HXA named as the most similar light chain; Raised against purified full-length protease; also called neutralizing mAb Fab fragment; source: hybridoma (Balb C mouse spleen cells fused with SP2/0 myeloma cells), IgG purified on Protein G columns; Fab excised with immobilized Ficin
binding result: binds
